Here are results for 29 sequences from the Immune Epitope Database (IEDB).

In one experiment the target is HLA-B*08:01. The experiment can be described thus: IEDB peptide-MHC binding, purified MHC/competitive/radioactivity; filed as Kd, often an IC50 or EC50 that approximates it; ≥ and ≤ were set here for values at or beyond the usual limits of such assays.
A further experiment concerns the target HLA-A*24:02. The description is as above.
The target in the next experiment is HLA-A*29:02. Described as above.
Another experiment addresses HLA-A*23:01. The description is as above.
In the next experiment the target is HLA-A*68:02. Described as above.
The next experiment addresses HLA-A*01:01. The experiment is described as above.
A further experiment deals with HLA-A*30:02. Described as above.
In another experiment the target is HLA-A*26:01. Described as above.
The next experiment addresses HLA-B*40:01. Described as above. As to conditions: source organism: Dengue virus 2 Jamaica/1409/1983.
For the next experiment, the target named is HLA-A*02:06. Described as above. As to conditions: source organism: Trypanosoma cruzi.
The target of another experiment is HLA-A*02:03. The experiment is described as above.
For another experiment, the target named is HLA-A*02:02. The description is as above. As to conditions: source organism: Trypanosoma cruzi.
In the next experiment the target is HLA-B*57:01. The experiment can be described thus: IEDB peptide-MHC binding, purified MHC/direct/fluorescence; filed as Kd, often an IC50 or EC50 that approximates it; ≥ and ≤ were set here for values at or beyond the usual limits of such assays. As to conditions: source organism: Salmonella enterica.
A further experiment deals with HLA-B*58:01. The experiment is described as above. As to conditions: source organism: Salmonella enterica.
[1] abbreviates: source organism: Dengue virus 1 Brazil/97-11/1997.
Where [2] appears, read: source organism: Mammarenavirus whitewaterense.
Setting [3] is: source organism: SARS coronavirus Tor2.
The mark [4] stands for this setting: source organism: Vaccinia virus WR.
Where [5] appears, read: source organism: Dengue virus 3 Martinique/1243/1999.
Where [6] appears, read: source organism: Trypanosoma cruzi.
[7] abbreviates: source organism: Lymphocytic choriomeningitis virus (strain Armstrong).
The mark [8] stands for this setting: source organism: Dengue virus 3 Singapore/8120/1995.
The mark [9] stands for this setting: source organism: Mammarenavirus machupoense.

Usually Kd stands for the equilibrium constant for the complex coming apart.

For VNREGKIVGL, the Kd with HLA-B*08:01 (setting [1]) was not below 35600 nM.

As to PYIASRSQI, the values for the Kd with HLA-A*24:02 (setting [2]), with HLA-A*29:02 (setting [2]) and in the experiment with HLA-A*23:01 (setting [2]) were 2810 nM, not below 78900 nM and 492 nM, respectively.

For the sequence RTTWALCESI, the Kd in the experiment with HLA-A*68:02 (setting [1]) stood at 139 nM.

With VMPVHTLSI, the equilibrium dissociation constant (Kd) with HLA-A*24:02 (setting [3]) was 47.2 nM; with HLA-A*29:02 (setting [3]) it was 141 nM; with HLA-A*01:01 (setting [3]), not below 78100 nM; with HLA-A*23:01 (setting [3]), 109 nM; with HLA-A*30:02 (setting [3]), 4570 nM; with HLA-A*26:01 (setting [3]) it was not below 20700 nM.

With SCKVKIVPL, in the experiment with HLA-B*08:01 (setting [4]), the dissociation constant Kd is 1430 nM.

With ALRSRIREL, the Kd in the experiment with HLA-B*08:01 (setting [4]) worked out at 0.455 nM.

On to SYREAACCHL, for which the Kd was 221 nM with HLA-A*24:02 (setting [3]); not below 28900 nM with HLA-A*29:02 (setting [3]); not below 25100 nM in the experiment with HLA-A*01:01 (setting [3]); 643 nM with HLA-A*23:01 (setting [3]); 7040 nM with HLA-A*30:02 (setting [3]); not below 69700 nM in the experiment with HLA-A*26:01 (setting [3]).

IENSSVNVSL: the equilibrium dissociation constant (Kd) with HLA-B*40:01 came to 1.59 nM; with HLA-B*08:01 (source organism: Dengue virus 2 Jamaica/1409/1983) it was 764 nM.

For LTMKNKAWMV, in the experiment with HLA-A*68:02 (setting [5]), the equilibrium dissociation constant (Kd) amounted to 16.7 nM.

ALRPSTSRSL: the Kd with HLA-A*68:02 (source organism: Homo sapiens) is not below 60000 nM.

On to FVNHRFTLV, for which the Kd with HLA-A*02:06 stood at 6.57 nM; in the experiment with HLA-A*68:02 (setting [6]), 89.3 nM; with HLA-A*02:03 (setting [6]), 1.38 nM; with HLA-A*02:02, 81.8 nM.

For ILEDQNCKL, the equilibrium dissociation constant (Kd) with HLA-A*68:02 (source organism: Homo sapiens) was not below 60000 nM.

With QFIHFYREPV, the dissociation constant Kd is not below 70300 nM in the experiment with HLA-A*24:02 (setting [7]); not below 39400 nM with HLA-A*29:02 (setting [7]); not below 41300 nM in the experiment with HLA-A*01:01 (setting [7]); not below 69500 nM with HLA-A*23:01 (setting [7]); 5150 nM with HLA-A*30:02 (setting [7]); not below 69700 nM with HLA-A*26:01 (setting [7]).

Take LLVTHYAII: the equilibrium dissociation constant (Kd) in the experiment with HLA-A*02:03 (setting [8]) was 39.2 nM; with HLA-B*08:01 (setting [8]) it was 667 nM.

Take VYKVYYGNAL: the equilibrium dissociation constant (Kd) is 203 nM in the experiment with HLA-A*24:02 (setting [3]); 7770 nM with HLA-A*29:02 (setting [3]); not below 37200 nM in the experiment with HLA-A*01:01 (setting [3]); 746 nM with HLA-A*23:01 (setting [3]); 5980 nM with HLA-A*30:02 (setting [3]); 11700 nM with HLA-A*26:01 (setting [3]).

For QKQTQRSGVL, the dissociation constant Kd in the experiment with HLA-B*08:01 (setting [5]) is 5800 nM.

Regarding TSMSFSCIAI, the equilibrium dissociation constant (Kd) with HLA-A*68:02 (setting [5]) is 1.23 nM.

For the sequence APALQEAYY, the dissociation constant (Kd) with HLA-A*24:02 (setting [3]) is not below 77600 nM; in the experiment with HLA-A*29:02 (setting [3]), 1990 nM; with HLA-A*01:01 (setting [3]), not below 109000 nM; with HLA-A*23:01 (setting [3]), not below 77800 nM; with HLA-A*30:02 (setting [3]) it was 365 nM; in the experiment with HLA-A*26:01 (setting [3]), not below 65600 nM.

In the case of RFKTKGRYNL, the Kd in the experiment with HLA-A*24:02 (setting [9]) was 579 nM; with HLA-A*29:02 (setting [9]) it was 104 nM; with HLA-A*23:01 (setting [9]), 87.5 nM.

For the sequence MFISLFMIL, the Kd in the experiment with HLA-B*08:01 (setting [4]) was 223 nM.

As for QYVRSGKDHV, the dissociation constant (Kd) is not below 70300 nM with HLA-A*24:02 (setting [7]); not below 71400 nM in the experiment with HLA-A*29:02 (setting [7]); not below 70400 nM with HLA-A*01:01 (setting [7]); not below 50200 nM with HLA-A*23:01 (setting [7]); 1440 nM with HLA-A*30:02 (setting [7]); not below 69700 nM with HLA-A*26:01 (setting [7]).

On to RSRCRLHHL, for which the figures for the dissociation constant (Kd) in the experiment with HLA-B*57:01 and with HLA-B*58:01 were 3540 nM and 598 nM, respectively.

On to LRTTTVSGKL, for which, in the experiment with HLA-B*08:01 (setting [5]), the Kd was 9540 nM.

LMKMKKKTWL: the Kd with HLA-B*08:01 (source organism: Dengue virus 4 Philippines/H241/1956) came to 24.1 nM.

Take LFLAFVVFL: the Kd was not below 29900 nM with HLA-A*24:02 (setting [3]); 7980 nM with HLA-A*29:02 (setting [3]); 812 nM in the experiment with HLA-A*01:01 (setting [3]); 1880 nM with HLA-A*23:01 (setting [3]); not below 34300 nM with HLA-A*30:02 (setting [3]); 571 nM in the experiment with HLA-A*26:01 (setting [3]).

With DKRMKSLAM, the Kd with HLA-B*08:01 (setting [4]) turned out to be 9.85 nM.

Take VSIINNAVY: the Kd in the experiment with HLA-A*24:02 (setting [3]) is not below 58700 nM; with HLA-A*29:02 (setting [3]), 1070 nM; in the experiment with HLA-A*01:01 (setting [3]), 883 nM; in the experiment with HLA-A*23:01 (setting [3]), not below 44300 nM; with HLA-A*30:02 (setting [3]), 9.17 nM; with HLA-A*26:01 (setting [3]) it was 15300 nM.

As for MWLGARYLEF, the Kd was 97.7 nM with HLA-A*24:02 (setting [5]) and 3.54 nM with HLA-A*23:01 (setting [5]).

For LYLTQDLFL, the Kd in the experiment with HLA-A*24:02 (setting [3]) was not below 70300 nM; with HLA-A*29:02 (setting [3]), not below 71900 nM; with HLA-A*01:01 (setting [3]), not below 20400 nM; with HLA-A*23:01 (setting [3]), not below 81700 nM; in the experiment with HLA-A*30:02 (setting [3]), not below 81100 nM; in the experiment with HLA-A*26:01 (setting [3]) it was not below 34000 nM.
